Reference: the nanobody polyreactivity screen of Harvey et al. (2022)

Test: yeast display, Sf9 membrane polyspecificity reagent, FACS + sequencing; frameworks hold sequencing errors
Procedure, shortened: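 A synthetic nanobody library was expressed on Saccharomyces cerevisiae BJ5465 by galactose induction for 36–48 hours. The library was stained for 1 hour at 4 °C with 10% biotinylated, detergent-solubilized Sf9 membrane reagent and enriched with streptavidin microbeads before FACS. Low and high (top ~1%) gates were set on anti-HA fluorescence for expression and streptavidin fluorescence for reagent binding, and each polyreactivity label reflects the gate of origin.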

For “QVQLVESGGGLVQAGGSLRLSCAASGTFPVYTMGWYRQAPGKERELVAAISRNGGSTYYADSVKGRFTISRDNAKNTVYLQMNSLKPEDTAVYYCAAVKVKRPGMDYWGQGTQVTVSS”, which “polyreactivity (PSR sort gate)” value is on record?
The value was “high polyreactivity”.

For “QVQLVESGGGLVQAGGSLRLSCAASGTFSFYAMGWYRQAPGKERELVAAITRSSSRTYYADSVKGRFTISRDNAKNTVYLQMNSLKPEDTAVYYCRAKQVNRFDYWGQGTQVTVSS”, which “polyreactivity (PSR sort gate)” value is on record?
The value was “high polyreactivity”.

For “QVQLVESGGGLVQAGGSLRLSCAASGTFSPYAMGWYRQAPGKESELVAVITSNTGRTYADSVKGRFTISRDNAKKTVYLQMNSLKPEDTAVYYCAARSTYRHWYRTGSRFDYWGQGTQVTVSS”, which “polyreactivity (PSR sort gate)” value is on record?
The value was “low polyreactivity”.

Which “polyreactivity (PSR sort gate)” value does the source give for “QVQLVESGGGLVQAGGSLRLSCAASGTFSSNAMGWYRQAPGKERELVAAISSTGTTTYYADSVKGRFTISRDNAKNTVYLQMNSLKPEDTAVYYCAKYAYTSVHSWYYYWGQGTQVTVSS” here?
The value was “high polyreactivity”.

Which “polyreactivity (PSR sort gate)” value does the source give for “QVQLVESGGGLVQAGGSLRLSCAASGTFSYYAMGWYRQAPGKERELVATISWSGDSTYYADSVKGRFTISRDNAKNTVYLQMNSLNPEDTAVYYCNADHFQWGAGYDYWGQGTQVTVSS” here?
The value was “low polyreactivity”.

Which “polyreactivity (PSR sort gate)” value does the source give for “QVQLVESGGGLVQAGGSLRLSCAASGTFVYYAMGWYRQAPGKERELVAVISLNGGITYYADSVKGRFTISRDNAKNTVYLQMNSLKPEDTAVYYCNAQFYNSGWSFKSYYWGHGTQVTVSS” here?
Its value is “low polyreactivity”.

Which “polyreactivity (PSR sort gate)” value does the source give for “QVQLVESGGGLVQAGGSLRLSCAASGTFYLYAIGWYRQAPGNERELVAALTRGGSTNYADSVKGRFTISRDNAKNTVDLQMNSLKPEDTAVYYCAAGSSRVFRKAGITRPSGLYYYWGQGTQVTVSS” here?
The value was “high polyreactivity”.

For “QVQLVESGGGLVQAGGSLRLSCAASGTFYLYAMGWYRQAPGKERELVAAISGSGSTNYADSVKGRFTISRDNAKNTVYLQMNSLKPEDTAVYYCAAYQRYDSVTGARYEYDYWGQGTQVTVSS”, which “polyreactivity (PSR sort gate)” value is on record?
The value was “low polyreactivity”.

Which “polyreactivity (PSR sort gate)” value does the source give for “QVQLVESGGGLVQAGGSLRLSCAASGTFYLYAMGWYRQAPGKERELVARINSSGSTNLRRLCEGALHNFTRQCEEYRLFTDEQPETGRYRVYYCNADTKRSSREYDYWGQGTQVTVSS” here?
Its value is “low polyreactivity”.

For “QVQLVESGGGLVQAGGSLRLSCAASGTICYPYAMGWYRQAPGKERELVASISWSGGSTRYADSVKGRFTISRDNAKNTVYLQMNSLKPEDTAVYYCAARYILSKYGSGVRYNYWGQGTQVTVSS”, which “polyreactivity (PSR sort gate)” value is on record?
The value was “high polyreactivity”.

For “QVQLVESGGGLVQAGGSLRLSCAASGTIFQSNAMGWYRQAPGKERELVAAISSSGGRTYYADSVKGRFTISRDNAKNTVYLQMNSLKPEDTAVYYCADLGYPDGGWGQGTQVTVSS”, which “polyreactivity (PSR sort gate)” value is on record?
Its value is “low polyreactivity”.

With “QVQLVESGGGLVQAGGSLRLSCAASGTIYYNTMGWYRQAPGKERELVASISRTGSTKYADSVKGRFTISRDNAKNTVYLQMNSLKPEDTAVYYCAADYLAFREGAVWLYDYWGQGTQVTVSS” as the sequence, how does the “polyreactivity (PSR sort gate)” value read?
Its value is “high polyreactivity”.

For “QVQLVESGGGLVQAGGSLRLSCAASGTMGSYRQAPGKERELVAAISQSGGSTYYADSVKGRFTISRDNAKNTVYLQMNSLKPEDTAVYYCAVDPRYGHPRRDYWGQGTQVTVSS”, which “polyreactivity (PSR sort gate)” value is on record?
The value was “low polyreactivity”.

Which “polyreactivity (PSR sort gate)” value does the source give for “QVQLVESGGGLVQAGGSLRLSCAASGTMPGYAMGWYRQAPGKERELVAAITWSDDSTFYADSVKGRFTISRDNAKNTVYLQMNSLKPEDTAVYYCAAEYVVSTQEFDYCGQGTQVTVSS” here?
Its value is “low polyreactivity”.

For “QVQLVESGGGLVQAGGSLRLSCAASGTNFRYYTMGWYRQAPGKERELVAAITYSGGTTYYADSVKGRFTISRDNAKNTVYLQMNSLKPEDTAVYYCAATFQANYFSGYYTVYLSDYWGQGTQVTVSS”, which “polyreactivity (PSR sort gate)” value is on record?
The value was “low polyreactivity”.

Which “polyreactivity (PSR sort gate)” value does the source give for “QVQLVESGGGLVQAGGSLRLSCAASGTTFARNAMGWYRQAPGKERELVAVISYSGGSSYADSVKGRFTISRDNAKNTVYFHMKSLKPEVTAVYYCAARAWYPSRYDFWGQGTQVIVSS” here?
Its value is “high polyreactivity”.

With “QVQLVESGGGLVQAGGSLRLSCAASGTTFAYNAMGWYIQAPGKEREMVAAISTSGGSTNYADSVKGRYTISRDNAMNTVYLQMNSLKPEDTAVYYCAARPKTPSITRYGYWGQGTQVTVSS” as the sequence, how does the “polyreactivity (PSR sort gate)” value read?
The value was “high polyreactivity”.

Which “polyreactivity (PSR sort gate)” value does the source give for “QVQLVESGGGLVQAGGSLRLSCAASGTTFCSYAMGRYRQAPGKEREFVAAISSSDDSTYYADSVKGRFTISRDYAKNTVYLQMNSLKPEDTAVYYCAAAQRVNHVWYDYWGQGTQVTVSS” here?
The value was “low polyreactivity”.

With “QVQLVESGGGLVQAGGSLRLSCAASGTTFGGNSMGWYRQAPGKERELVAAIDSGGSTYADSVKGRFTISRDNAKNTVYLQMNSLKPEDTAVYYCAAVWEFVHYWRFDYWGQGSQVTVSS” as the sequence, how does the “polyreactivity (PSR sort gate)” value read?
Its value is “low polyreactivity”.

For “QVQLVESGGGLVQAGGSLRLSCAASGTTFGINAMGWYRQAPGKERELVASITRRGGSTYYADSVKGRFTISRDNAKNTVYLQMNSLKPEDTAVYYCNKTYRYGTPLYDYWGQGTQVTVSS”, which “polyreactivity (PSR sort gate)” value is on record?
Its value is “high polyreactivity”.

For “QVQLVESGGGLVQAGGSLRLSCAASGTTFGPNAMGWYRQAPGTERELVAAIRWRGGSTYYADSVQGRFTIARDNAKNTVYLQMNSLKPEDTAVYYCADTRYSWHNRVSRRHRYDYWGQGTQVTVSS”, which “polyreactivity (PSR sort gate)” value is on record?
The value was “high polyreactivity”.

With “QVQLVESGGGLVQAGGSLRLSCAASGTTFGQYAKGWYRQAPGKERDLLAAISSGGRTNYADSVKGRFTISRDNAKNTVYLQMNCVKPEDSAVYDCAARYYFPFRRFRRMDYWGQGTQVTVSS” as the sequence, how does the “polyreactivity (PSR sort gate)” value read?
The value was “high polyreactivity”.

For “QVQLVESGGGLVQAGGSLRLSCAASGTTFGRYAMGWYRQAPGKERELVAAITRSGGRTYYADSVKERFTISRDNAKNTVYLQMNSLIPEDTAVYYCAAVGNLYYTSLWQYDYWGQGTQVTVSS”, which “polyreactivity (PSR sort gate)” value is on record?
The value was “high polyreactivity”.

For “QVQLVESGGGLVQAGGSLRLSCAASGTTFKTYCMGRYRQAPGKERELVAAISRRGGSTSYADSVKGRFTISRDNAKNTVYLQMNSLKPEDTAVYYCNVLGWWHVWGYDYWGQGTQVTVSS”, which “polyreactivity (PSR sort gate)” value is on record?
The value was “high polyreactivity”.

For “QVQLVESGGGLVQAGGSLRLSCAASGTTFTDNAMGWYRQAPGKERELVAAITSGSSTNYADSVKGRFTISRDNAKNTVSLQMNSLKPEDTAVYYCATGQVPQYSTGDYWGQGTQVTVSS”, which “polyreactivity (PSR sort gate)” value is on record?
Its value is “low polyreactivity”.

With “QVQLVESGGGLVQAGGSLRLSCAASGTTLPYYAMGWYRQAPGKERELVAAITSSGGDTYYADSVKGRFTISRDNAKNTVYLQMNSLKPEDTAVYYCAKSYSARSTVRKLFYFAYDYWGQGTQVTVSS” as the sequence, how does the “polyreactivity (PSR sort gate)” value read?
Its value is “low polyreactivity”.

Which “polyreactivity (PSR sort gate)” value does the source give for “QVQLVESGGGLVQAGGSLRLSCAASGTYFNAMGWYRQAPGKERELVAAISLSGGRTYYADSVKGRFTISRDNAKNTVYLQMNSLKPEDTAVYYCAASNRGATRRQVNYWGQGTQVTVSS” here?
Its value is “high polyreactivity”.

With “QVQLVESGGGLVQAGGSLRLSCAASGVIFGPNAMGWYRQAPGKERELVAAIRWSGSRTYYADSVKGRFTISRDNAKNTVYLQMNSLKPEDTAVYYCAATGGLNGALSRLEYWGQGTQVTVSS” as the sequence, how does the “polyreactivity (PSR sort gate)” value read?
Its value is “high polyreactivity”.

With “QVQLVESGGGLVQAGGSLRLSCAASGVIFGYYAMGWDRQAPGKERELVAAITLSGSRTYYADSVTGRFTISRDTAKNTVDLQMNSLKPEDTAVYYCAKRRYWYYRSRDWFVSGDYWGQGTQVTVSS” as the sequence, how does the “polyreactivity (PSR sort gate)” value read?
Its value is “low polyreactivity”.

With “QVQLVESGGGLVQAGGSLRLSCAASGVILSAYAMGLYRQAPAKERELVAAITGSGGRTYYADSVKGRFTISRDNAKNTVYFQMNSLKPEDTAVNYCAARYTYVGSYTYNSWGQGPQVTVSS” as the sequence, how does the “polyreactivity (PSR sort gate)” value read?
Its value is “high polyreactivity”.

For “QVQLVESGGGLVQAGGSLRLSCAASGVNAMGWYRQAPGKEREFVAAITSIGGSTYYADSVKGRFTISRDNAKNTVYLQLNSLKPEDTAVYDCNTDRGPVKVSPLYESWGQGTQVTVSS”, which “polyreactivity (PSR sort gate)” value is on record?
Its value is “low polyreactivity”.

For “QVQLVESGGGLVQAGGSLRLSCAASGVTFTYYAMGWYRQAPGKERELVAAISKSGGRTYYADSVKGRFTISRDNAKNTVYLQMNSLKPEDTAVYYCAARITREGYYWGQGTQVTVSS”, which “polyreactivity (PSR sort gate)” value is on record?
The value was “high polyreactivity”.

Which “polyreactivity (PSR sort gate)” value does the source give for “QVQLVESGGGLVQAGGSLRLSCAASGVTFYYYAMGWYRQAPGKERELVASITSTDSTTYADSVKGRFTISRDNAKNTVYLQMNRLKPEDTAVYYCNRLYNHWYGGLDYWGQGTQVTVSS” here?
Its value is “high polyreactivity”.

Which “polyreactivity (PSR sort gate)” value does the source give for “QVQLVESGGGLVQAGGSLRLSCAASGYIFAGNAMGWYRQAPGKERELVAVITRGGRTYYADSVKGRFTISRDNAKNTVYLQMNSLKPEDTAVYYCAARYPYRGWGQGTQVTVSS” here?
Its value is “high polyreactivity”.

Which “polyreactivity (PSR sort gate)” value does the source give for “QVQLVESGGGLVQAGGSLRLSCAASGYIFANNAMGWYRQAPGKERELVAAISSSGGRTYYADSVKGRFTISRDNAKNTVYLQMNSLKPEDTAVYYCNKYGTALWRYYYWGQGTQVTVSS” here?
Its value is “high polyreactivity”.

Which “polyreactivity (PSR sort gate)” value does the source give for “QVQLVESGGGLVQAGGSLRLSCAASGYIFARYAMGWYRQAPGTERELVARITTGDSTYYADSVKGRFTISRDNAKNTVYLQMNSLKPEDTAVYYCAADDNVSVVGLYYWGQGTQVTVSS” here?
The value was “low polyreactivity”.

Which “polyreactivity (PSR sort gate)” value does the source give for “QVQLVESGGGLVQAGGSLRLSCAASGYIFDDNAMGWYRQAPGKERELVATNYADSVKGRFTISRDNAKNTVYLQMNSLKPEDTAVFYCAKAGYRSEFEYWGQGTQVTVSS” here?
Its value is “low polyreactivity”.

For “QVQLVESGGGLVQAGGSLRLSCAASGYIFDLNAMGWSRQAPGKERELVAANSTGGGTYYADSVKGRFTISRDNAKNTVYLQMNILKPEDTAVYYCAADWGYWYAEYDYWGQGTQVTVSS”, which “polyreactivity (PSR sort gate)” value is on record?
Its value is “low polyreactivity”.

Which “polyreactivity (PSR sort gate)” value does the source give for “QVQLVESGGGLVQAGGSLRLSCAASGYIFDRYAMGWYRQAPGKERELVAAISGRGGSTYYADSVKGRFTISRDNAKNTVYLQMNSLKPEETAVYYCARDVYVRNGQRARYDSWGQGTQVTVSS” here?
The value was “high polyreactivity”.

Which “polyreactivity (PSR sort gate)” value does the source give for “QVQLVESGGGLVQAGGSLRLSCAASGYIFDVNTMGWYRQAPGKERELFAAITSGGTTYYADSVKGRFTISRDNAKNTVYLQMNSLKPEDTAVYYCAARRYPFEYDYWGQGTQVTVSS” here?
Its value is “high polyreactivity”.

Which “polyreactivity (PSR sort gate)” value does the source give for “QVQLVESGGGLVQAGGSLRLSCAASGYIFERNALGWYRQAPGKERELVAAINWRTGRTYYADSVKGRFTISRDYAKYNVYLQMNSLKPEDTAVYYCAKEHSTYWAQPTYSYDNWGQGTQVTVSS” here?
The value was “low polyreactivity”.

Which “polyreactivity (PSR sort gate)” value does the source give for “QVQLVESGGGLVQAGGSLRLSCAASGYIFERNAMGWYRQAPGKERELVAAITDDGDDTYYADSVKGRFTISRDNAKNTVYLQMNSLKAEDTAVYYCAKDLYYGDYYYWGQGTQVTVSS” here?
The value was “low polyreactivity”.

For “QVQLVESGGGLVQAGGSLRLSCAASGYIFEVNAMGWYRQAPGKERELVATIDTSSGSTNYADSVKGRFTISRDNAKNTVYLQMNSLKPEDTAVYYCAADDETVFLQDDYWGQGTQVTVSS”, which “polyreactivity (PSR sort gate)” value is on record?
Its value is “low polyreactivity”.
